Key:
Test in all cases: cell-based or functional assay
[1] = biological target: HIV Env of isolate 6471.v1.c16 (HIV)
[2] = biological target: HIV Env of isolate CNE40 (HIV)
[3] = biological target: Env of SIVmac251.30.SG3
[4] = biological target: Env of HIV isolate 6535.3 (clade B) (HIV)
[5] = biological target: Env of HIV isolate 6471.v1.c16 (clade C) (HIV)
[6] = biological target: Env of HIV isolate CNE55 (clade AE) (HIV)
[7] = biological target: HIV Env of isolate CH181.12 (HIV)
[8] = biological target: HIV Env of isolate CAP244.D3 (HIV)
[9] = biological target: HIV Env of isolate DU422.01 (HIV)
[10] = biological target: Env of HIV isolate CNE20 (clade BC) (HIV)
[11] = biological target: HIV Env of isolate X2131.C1.B5 (HIV)
[12] = biological target: Env of HIV isolate KNH1209.18 (clade A) (HIV)
[13] = biological target: Env of HIV isolate 89.6.DG (clade B) (HIV)
[14] = biological target: HIV Env of isolate 3016.v5.c45 (HIV)
[15] = biological target: Env of HIV isolate C4118.09 (clade AE) (HIV)
[16] = biological target: Env of HIV isolate P0402.c2.11 (clade G) (HIV)
[17] = biological target: HIV Env of isolate UG021.16 (HIV)
[18] = biological target: Env of HIV isolate 242-14 (clade AG) (HIV)
[19] = biological target: Env of HIV isolate ZM53.12 (clade C) (HIV)
[20] = biological target: Env of HIV isolate ZM55.28a (clade C) (HIV)
[21] = biological target: Env of HIV isolate 00836-2.5 (clade C) (HIV)
[22] = biological target: HIV Env of isolate 426c (HIV)
[23] = biological target: Env of HIV isolate CNE4 (clade B) (HIV)
[24] = biological target: Env of HIV isolate CAAN.A2 (clade B) (HIV)
[25] = biological target: Env of HIV isolate CNE5 (clade AE) (HIV)
[26] = biological target: HIV Env of isolate 3326.v4.c3 (HIV)
[27] = biological target: HIV Env of isolate X1632.S2.B10 (HIV)
[28] = biological target: Env of HIV isolate 398-F1.F6.20 (clade A) (HIV)
[29] = biological target: Env of HIV isolate CNE40 (clade BC) (HIV)
[30] = biological target: HIV Env of isolate 001428-2.42 (HIV)
[31] = biological target: HIV Env of isolate 231965.c01 (HIV)
[32] = biological target: Env of HIV isolate 3326.v4.c3 (clade CD) (HIV)
[33] = biological target: HIV Env of isolate 96ZM651.02 (HIV)
[34] = biological target: Env of HIV isolate 26191-2.48 (clade C) (HIV)
[35] = biological target: Env of HIV isolate CNE53 (clade C in Table 7) (HIV)
[36] = biological target: Env of HIV isolate JRFL.JB (clade B) (HIV)
[37] = biological target: HIV Env of isolate UG024.2 (HIV)
[38] = biological target: Env of HIV isolate ADA.DG (clade B) (HIV)
[39] = biological target: Env of HIV isolate REJO.67 (clade B) (HIV)
[40] = biological target: Env of HIV isolate CNE15 (clade BC) (HIV)
[41] = biological target: HIV Env of isolate X1254.c3 (HIV)
[42] = biological target: Env of HIV isolate WITO.33 (clade B) (HIV)
[43] = biological target: Env of HIV isolate ZM233.6 (clade C) (HIV)
[44] = biological target: HIV Env of isolate CAP210.E8 (HIV)
[45] = biological target: Env of HIV isolate 0077.v1.c16 (clade C) (HIV)
[46] = biological target: Env of HIV isolate 6838.v1.c35 (clade C) (HIV)
[47] = biological target: Env of HIV isolate R2184.c4 (clade AE) (HIV)
[48] = biological target: Env of HIV isolate A07412M1.vrc12 (clade D) (HIV)
[49] = biological target: HIV Env of isolate 6405.v4.c34 (HIV)
[50] = biological target: Env of HIV isolate CNE8 (clade AE) (HIV)

B1: ePGT121.15 (ePGT121.15.H6 VH and ePGT121.15.L1 VL) (antibody, V domains shown)
VH: QMQLQESGPGLVKPGETLSLTCSVSGASISSSYWSWLRETPGKGLEWIGYTHHSGDTNYAPSLKSRVHLGLHPSKNQVSLSLTSVTAADTAVYYCARTLHGRRIYGVVAFNEFFTYFYWEVWGKGTQVTVSS
VL: SDISVAPGETVRISCGGESIGSRAVQWYQHRAGQAPKLIIYNNQDRPPGIPERFSGSPDIDFGTTATLTITNVEAGDEATYYCHIWDSRRPTNWVFGGGTTLTVL
- IC80, pseudovirus neutralization [1]: 6.35 µg/mL
- IC80, pseudovirus neutralization [2]: 0.082 µg/mL
- IC80, pseudovirus neutralization [3]: > 50 µg/mL
- IC50, pseudovirus neutralization [4]: 0.0007 µg/mL
- IC50, pseudovirus neutralization [5]: 1.04 µg/mL
- IC50, pseudovirus neutralization [6]: > 50 µg/mL
- IC80, pseudovirus neutralization [7]: 0.008 µg/mL
- IC80, pseudovirus neutralization [8]: > 50 µg/mL
- IC80, pseudovirus neutralization [9]: 0.022 µg/mL
- IC50, pseudovirus neutralization [10]: 0.003 µg/mL
- IC80, pseudovirus neutralization [11]: 0.004 µg/mL
- IC50, pseudovirus neutralization [12]: 0.003 µg/mL
- IC50, pseudovirus neutralization [13]: 0.002 µg/mL
- IC80, pseudovirus neutralization [14]: > 50 µg/mL
- IC50, pseudovirus neutralization [15]: > 50 µg/mL
- IC50, pseudovirus neutralization [16]: 0.004 µg/mL
- IC80, pseudovirus neutralization [17]: 0.022 µg/mL
- IC50, pseudovirus neutralization [18]: 42.8 µg/mL
- IC50, pseudovirus neutralization [19]: 0.008 µg/mL
- IC50, pseudovirus neutralization [20]: 0.009 µg/mL
- IC50, pseudovirus neutralization [21]: 2.25 µg/mL
- IC80, pseudovirus neutralization [22]: 1.38 µg/mL
- IC50, pseudovirus neutralization [23]: 0.004 µg/mL
- IC50, pseudovirus neutralization [24]: 0.005 µg/mL
- IC50, pseudovirus neutralization [25]: > 50 µg/mL
- IC80, pseudovirus neutralization [26]: 5.05 µg/mL
- IC80, pseudovirus neutralization [27]: > 50 µg/mL
- IC50, pseudovirus neutralization [28]: 0.004 µg/mL
- IC50, pseudovirus neutralization [29]: 0.028 µg/mL
- IC80, pseudovirus neutralization [30]: 0.005 µg/mL
- IC80, pseudovirus neutralization [31]: > 50 µg/mL
- IC50, pseudovirus neutralization [32]: 0.362 µg/mL
- IC80, pseudovirus neutralization [33]: 0.004 µg/mL
- IC50, pseudovirus neutralization [34]: 0.005 µg/mL
- IC50, pseudovirus neutralization [35]: 0.007 µg/mL
- IC50, pseudovirus neutralization [36]: 0.014 µg/mL
- IC80, pseudovirus neutralization [37]: 4.72 µg/mL
- IC50, pseudovirus neutralization [38]: 0.005 µg/mL
- IC50, pseudovirus neutralization [39]: 1.46 µg/mL
- IC50, pseudovirus neutralization [40]: 3.52 µg/mL
- IC80, pseudovirus neutralization [41]: 0.009 µg/mL
- IC50, pseudovirus neutralization [42]: 0.008 µg/mL
- IC50, pseudovirus neutralization [43]: 0.016 µg/mL
- IC80, pseudovirus neutralization [44]: 0.268 µg/mL
- IC50, pseudovirus neutralization [45]: > 50 µg/mL
- IC50, pseudovirus neutralization [46]: 0.234 µg/mL
- IC50, pseudovirus neutralization [47]: > 50 µg/mL
- IC50, pseudovirus neutralization [48]: 0.005 µg/mL
- IC80, pseudovirus neutralization [49]: 0.009 µg/mL
- IC50, pseudovirus neutralization [50]: > 50 µg/mL
